Source: the supplement of paper PMC12636428

System: Saccharomyces cerevisiae
Test: transcriptional activation domain activity (GFP:mCherry ratio, weighted mean of sorted bins, harmonized to initial dataset scale) (arbitrary fluorescence ratio units); higher = stronger transcriptional activation
Settings: beta-estradiol 1 µM; induction time 4 h
Method in brief: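 Each value is an activation activity: the read-weighted mean of bin median fluorescence, averaged across barcodes, then mapped linearly to the initial dataset scale. The tiles, fused to an estradiol-inducible synthetic transcription factor, sat at the yeast URA3 locus in GFP-reporter diploids. Cells spent 4 hours at 30 °C in SC with 1 uM beta-estradiol before sorting into 8 GFP:mCherry bins, and tiles below 50 reads were removed.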

Sequence | transcriptional activation domain activity
KHERDDEKERKHRKHDKPSKDKDGEDDDGEGRRHKKHRKHKERGSDDEDEHRK | 22500
DNPSFLPLDIEQSSYDLSEDAMSYPIISTQSNRDCTQYDNTKISQILQSQLNP | 63900
PVIFRKRPTYLMFISVCLMYIYLFAVVYIRPYKLTRNNHVAIISWITIVIFLF | 44400
LQLEMMEGIEDLDLEFDRMLDDFIIINFFIGNDFLPELPMLMVNDGAVPVILS | 85100
FPPPFPPPFPPPFLSSFPPPVPLPLTFPLPPFPFQFPFPFPHPLTFPLPFPFP | 17600
LTPFSPPHFPLFLPSILFSFPPPLSSHFLLFPYALSPLLLLLFPPLCSSQFTP | 45700
RPAAVLARQRERERARDARARAVRGAAPVAAAVAVRRVARHVCVACACAAAAA | 60400
NPMTFMGSTQRLAAIRNLRSNPKFLFVHLPNILSFLCIIVGVVWLLLLPLNEY | 33900
QILGCLYCVRWVHMCVYNVSGVQSLIPWLAMLPALARLKFSIWSHRGPPPDGD | 52100
MCLRKVSSLFYIGILFVDLFPTTYVSWWFFFFFLCLNLFVLAMICFGVFWFLC | 29300
KSWYFPSLSFFFFSFLFSFLSFAFLSFFLFFSFPFSLLLLYLFLLGLALTADG | 15600
ITQRLGENIICAVCITYLHSLLLVTILDRSEGCLLQYSLRMHIASKFQPSHQF | 51500
ILVGGFGLELGMNGVYPWYIFLFLACLASDFEFTMLFELTVGFFFPPLLFMCL | 51800
FDQYLFESISGLILRVQFIGGALPDSISIFEPTLFPPFTEILQGDIDQYIPYV | 51300
ILLAAHQILFIFCCWLFTITVCIPLSVIYYLFAILRLIKHYLLHRRPLIAYFL | 56900
MSVYLFCGLLIFLGCGGSGWRYGFLSFFRLLLGVYVSFRYQHLIYTAWLMWAY | 69200
GGGNRGRWPGDDSSDSSSSENERRGRRERRRRHRRRSASPDARRSGKGDAPKQ | < 6570
MTYLPFINFSLDIFVIVIVIVIYFPFFVTNFFNWFFSPFWCYLINYLFNLNLF | 52400
ILRLWQIFWVAAKTDHMSYPRFEAPGCGDFCRDWKVLVAIILIRTKLTMGTRC | 52200
MGWVHLIGRCLILPVHYVVPFFIFFYFAYTSILTTSIGLLGMDLSLRLVFLCS | 51000
DHLLKSLYMLIHTTLKCIKNLEFLGFYLFNSGFSSVFDECVFPYIRTLRCHQP | 65000
TDDAPRVKTKAEKEKEKKEKEKQRKKEMAAKKKANAPAKQEAAKPAETKAAAA | 41100
MFAKILVLSWFDSIRWGLFLLLCVMGVFLLFDIPFSFSLLVFSAWYFLFFSRR | 33800
TIVLEELRRASYWGRPSLERSWLLLDMTIKSFTGFIRLLDGDLARTICLFYLV | 76100
MLYLCFLISFYSLCFLFSYFFNFVLDILFFYYFIIFLFSYFSIFLFSYFLICL | 54300

Sequence | transcriptional activation domain activity
MPPLLQLRLVHFLQLCLLLLLLLLRLHLLELLHFLLVFLLHRSILLLCQICSL | 54800
MLYRVYLDIFFFLYCLFVLGAFQDTRRFLFKFWAFPLLKVWQVVTIHLTCTQY | 61800
AAAAKPASGAKTGGKGKGAKSKKSKATVESEDEGEGADGAPAKKKTKKGKTSD | 44200
VLLFLFVWRWGRRAFWQLRGRGIIGSVVELYVNIRRILYGYFLRAPGVRNKVQ | 44100
MLLFFSFSLCRFLFLSLLLVFLMDAFSFLCFLLIQPPLPCLRSFFSLFLIFVL | 38900
PPCLKLAGWLAFVVGSFCQSTNLVVIQISQNNWDCFSIWRTLILLVIFFSLPA | 58500
AAEEEEAEAQAEKEEAEAEEAEAEEELEEAQAEEAEAEEAEAEEAEAVRGAMG | < 6570
NANADAAAGNANADAGMANAGNNAAAGNANQAKGKGKKKNKAKGKAAGAGAGA | 29500
MKILRLYLTKLPFLARPILTQLLQESLFRYGIVRELGIYLRQNYFDNTGRFTL | 83400
MPPCGLVSLTCLTELVLGLNITACVVILVDGNHLIYILSLFFWCWILLTLPAT | 35500
DISKLAIETFYFFFLFLLSFLFSFLFFSFLFLIFFNFLYSSFFLSFFLSFFLF | 33900
GIESAGLEVITAQQLEQYAKDQKVLSNCMERNGITAVLCVGLRYIACLIMIIY | 66200
KAAKRGRNARRKRKDKPKGQDHEDEKSKINDDELEYASPSNATVTNGPQTSPD | 14300
KLHQQAKSDFDELQESIPHQVGFSTPQLTAQQLIENAIESGVVDLETLDLPPF | 112000
MIFSLFLSYNPLFYFIYYYLFYFSCFLLLILIAIITIIAILLCILEFHVPKSL | 51600
MCEGDFCVFFCVCVCVCVCLCVLFCFLFWFLFWWLLFFFLVMLFLAVGVFVYI | 35400
MHSSGWLWANISLLFPRLFFLTFFSYLLCDLAFRFDRLVCFLWLLFFQWSFII | 52200
MSLPGGFIFCCLFIFIFFAPFYSTFLRFFFPSCFYLFFYICCSFFFFFFFFPP | 38900
MTVMTLCFFGSSFGPWAGAWFCCLLLLLLLLVIAVSLFLHVCFAWEFWFCLCY | 39500
MQIVLYLHCKVCFIYFHCLLLDFRSFLHIQRPQEPWIAYIFPTTACVSPQTRR | 55300
FPYFPYFPYFPYFLYFLFSLFSLLSLLPLLLYFLHPFLFLTCFWFSKLACFLS | 51400
DSDGDEEPGKKRQKTALSCGECKRRKIKCDRKVPCVSCIKRGEPEKCNWEEAR | 30900
GEGSAEDGGGSSEPRRLRRSHEACSRCRGKKIKCDSKHPRCTACATANTQCTQ | 25100
FVYSLCIRYLLAPTPTFQEHGVSPRRSTGIALITLFFIILVIFLLTWMRLIHI | 45100
KILLNHNYFYFRMLCHHQTCNIYNLYHQIFLIFLQIIVSILLSLRIIALYLGN | 66400

Sequence | transcriptional activation domain activity
DGNAGQTAGNAGNGRQNGNGRQGGNGGAGQQGKPRPNGQKGQQGQRGQGAGAG | 20500
MILRAFFLLTVYFVCSPFFFLIIYLLFYDRPDSTLSWIWIWIHTFLPSLLFPS | 42500
SFNLLLYGCVLADIGINLSFSCAVSYSHNRKASDVPHILELLFICMLQCCYIG | 60000
SAPNDSTTAPTNASNIANTASVNKQMYFMNMNMNNNPHALNDPSILETLSPFF | 71400
FRLVPFVLWPPFTRRQTDELYLFSWSFLALIWFFIWSLVQFPIVLTVLLSLVF | 52000
IFVLDIIQVRCNYFFFLSFLFIWMRSMFFLCSNRLVALFLFYFSGSTLRVTIM | 51300
LKSKSVVSSRTAEEKKEISGALGEGMLQQLVVLLGQVPRIILLILKTNDLTRS | 52200
WIDTVLIVLFSNDVQIKHKLGRLIIDEWIQIKCPTRTCLLLKLLRKKLHNSLA | 33500
ILLANLECFPKEKIWDKTIVGGRCLDPIQVKLIWVYNAAVNLGLDVVILILPQ | 32200
MISPFHFQSLFFILFLLFFLCAWCSGWAGLRFFTPHLVSIFFLFMDWQLDLVG | 48500
MLRFYVLISFFFFLCNHLLFLICFIYIREFLSHLSGALVLCFGCMVWFLNFPS | 62000
ELLDELLARNKSLVILVLDQIFMFILAWNRDYDRYDIQKIIGLYYIQSNVSLF | 52100
GAAHVPSGLSEEKELEQEKKKADRRKGMREKAKEREAKRPVEVAAPEPVAAAP | 23700
TPLRISLFLVRVRCRHPSYSKWLPVEIKRCGVLLMSRLSLSLYRIFLNHITLN | 59900
EDEGEKDDDEEVKEVKEEGDNSGEEGKEGNGEEAKTEEDKPSEEQQQQAKEEA | < 6570
PENWTMDSWPLYWPQALIDTIPSLQLSIPPMDLTTLDNPLAPFAFFMFLFSWQ | 53400
ELQKLLKFKVDDKKYPRFSPMFYPNNVKKDKLLFRVRLLVNILRVVLLGPSSL | 36100
QHKKRRAEQAGRGEKAEADGSQARRKAEDRREEQQRAKQSAGQKEQEKVKAEQ | 56000
FLWYMLFLPLIIPRLSCSWLRLLCVQSGIFGEPIFFRLWICSIIYVVGHCWVL | 31200
AHACIVLVVCEIDKTLGHSKHLLMIWLMRLLLLILNIMTIVGLFWSFLKCLDV | 70900
CDEHINMKEKEPEKDETPAADGAAKEEEKKPETKPDDTFQAFVVIAVALISMG | 27600
EETKPAESAKETKPVANRPAQKKPEKRKKEEQEGQEVVEKETSKKRAKKDKKS | 39200
ENAGNENAVDVENAGNENTAPEAKGKKNKGNAAANENAAGNAQAGEAGQVAAN | 47200
YIAPCGTWTPYMNLFLGSTVCIFIGFDVFAPFSYRGLITNYFGLLWFCFMFLF | 78400
